Read-outs that look alike come from different tables or passages of the source. Where no end group is shown, it is not given here.

Common to all, as to test: cell-based or functional assay
Assay [1] deals with human Kv1.3 channel (human) (UniProt P22001).
In assay [2] the target is human Kv1.1 channel (human) (UniProt Q09470).
The target of assay [3] is human Kv1.3 channel (human) (UniProt P22001). The source holds these as a separate data set.

human Kv1.3 channel (human), sequence (P22001 whole entry): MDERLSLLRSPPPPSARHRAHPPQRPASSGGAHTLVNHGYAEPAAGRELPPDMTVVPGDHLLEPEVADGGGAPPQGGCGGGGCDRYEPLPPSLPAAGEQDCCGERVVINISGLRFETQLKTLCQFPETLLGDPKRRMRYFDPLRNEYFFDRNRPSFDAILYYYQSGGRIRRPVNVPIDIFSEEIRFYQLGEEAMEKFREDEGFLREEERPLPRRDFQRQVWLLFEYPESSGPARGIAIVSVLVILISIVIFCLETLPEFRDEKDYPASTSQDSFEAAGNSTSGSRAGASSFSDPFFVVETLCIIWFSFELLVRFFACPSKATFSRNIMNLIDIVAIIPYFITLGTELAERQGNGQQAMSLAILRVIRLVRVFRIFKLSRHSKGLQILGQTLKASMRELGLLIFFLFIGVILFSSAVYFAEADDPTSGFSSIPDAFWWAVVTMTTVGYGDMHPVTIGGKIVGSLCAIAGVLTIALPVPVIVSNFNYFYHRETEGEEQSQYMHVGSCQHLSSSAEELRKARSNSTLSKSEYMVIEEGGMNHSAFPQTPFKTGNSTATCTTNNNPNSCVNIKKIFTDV
human Kv1.1 channel (human), sequence (Q09470 whole entry): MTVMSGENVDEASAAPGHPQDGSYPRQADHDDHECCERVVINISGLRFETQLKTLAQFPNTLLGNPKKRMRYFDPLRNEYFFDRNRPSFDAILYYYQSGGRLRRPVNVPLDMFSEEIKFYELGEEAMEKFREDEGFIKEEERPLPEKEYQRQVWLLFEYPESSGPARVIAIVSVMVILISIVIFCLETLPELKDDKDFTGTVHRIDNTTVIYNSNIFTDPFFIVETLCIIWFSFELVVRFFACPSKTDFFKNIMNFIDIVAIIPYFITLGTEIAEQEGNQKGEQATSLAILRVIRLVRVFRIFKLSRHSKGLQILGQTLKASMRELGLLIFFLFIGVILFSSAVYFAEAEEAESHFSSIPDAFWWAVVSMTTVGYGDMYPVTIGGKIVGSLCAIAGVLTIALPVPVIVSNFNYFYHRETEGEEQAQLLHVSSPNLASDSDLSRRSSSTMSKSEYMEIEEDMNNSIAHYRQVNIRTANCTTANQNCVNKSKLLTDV

In the case of PEG-OSK1 (peptide), in assay [1], the peak IC50 (whole-cell patch clamp, HEK293 stably expressing human Kv1.3) was 1.28 nM.

“Fc-L10-OSK1 (CHO-derived peptibody) (Fc fusion)” came in with a hKv1.1: IC50 (electrophysiology, HEK293) in assay [2] of 41600 pM.

Consider Synthetic OSK1 toxin peptide, for which the hKv1.1: IC50 (electrophysiology, HEK293) in assay [2] was 160 pM. Further, in assay [1], the hKv1.3: IC50 (whole-cell patch clamp, HEK293) stood at 39 pM and the selectivity ratio hKv1.1/hKv1.3 (IC50 on hKv1.1 over IC50 on hKv1.3) worked out at 4.

In turn, Fc-L25-ShK[2-35] peptibody (Fc fusion) returned an IC50, whole cell patch clamp electrophysiology on HEK293/Kv1.3 cells in assay [1] of 150 pM.

B1: 20K PEG-ShK[1-35] (peptide)
peptide: RSCIDTIPKSRCTAFQCKHSMKYRLSFCRKTCGTC
modifications: not fully specified (N-terminus); ends and bridges not checked
In assay [3], B1 returned a peak IC50 (whole-cell patch clamp, HEK293 stably expressing human Kv1.3) of 0.169 nM.

Source of the values: patent US20070071764A1.
